According to patent US20100056764A1 (Novo Nordisk, published 2010):

What was measured:
mouse NKG2D = target: T1, mouse NKG2D (mouse, UniProt O54709 1-232, limits assumed); assay: not described
T1 construct: The assay format for the cross-reactivity test is not described
T1 sequence (looked up): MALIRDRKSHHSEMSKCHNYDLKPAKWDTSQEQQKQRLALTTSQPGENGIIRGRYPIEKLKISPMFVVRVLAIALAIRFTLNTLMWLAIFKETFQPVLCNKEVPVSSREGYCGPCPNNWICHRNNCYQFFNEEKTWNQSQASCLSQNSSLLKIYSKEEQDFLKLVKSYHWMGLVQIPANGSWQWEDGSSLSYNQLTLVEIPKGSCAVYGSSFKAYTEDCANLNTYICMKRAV

rat NKG2D = target: T2, rat NKG2D (rat, UniProt O70215 1-215, limits assumed); assay: not described
T2 construct: The assay format for the cross-reactivity test is not described
T2 sequence (looked up): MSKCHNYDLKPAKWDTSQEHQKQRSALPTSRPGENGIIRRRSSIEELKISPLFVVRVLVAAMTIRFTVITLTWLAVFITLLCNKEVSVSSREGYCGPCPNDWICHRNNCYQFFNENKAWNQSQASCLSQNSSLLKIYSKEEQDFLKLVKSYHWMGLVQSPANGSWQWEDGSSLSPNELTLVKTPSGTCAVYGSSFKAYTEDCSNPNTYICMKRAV

dog NKG2D = target: T3, dog NKG2D (dog, UniProt A0A8I3PNL2 1-217); assay: not described
T3 construct: The assay format for the cross-reactivity test is not described
T3 sequence: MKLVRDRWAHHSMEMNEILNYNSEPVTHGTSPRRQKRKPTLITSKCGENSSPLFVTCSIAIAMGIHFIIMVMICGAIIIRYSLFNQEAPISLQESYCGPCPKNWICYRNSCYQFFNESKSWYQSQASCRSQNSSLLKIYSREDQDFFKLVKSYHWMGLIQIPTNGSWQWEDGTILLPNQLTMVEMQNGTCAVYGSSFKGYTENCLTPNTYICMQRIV

pig NKG2D = target: T4, pig NKG2D (pig, UniProt Q9GLF5 1-214, limits assumed); assay: not described
T4 construct: The assay format for the cross-reactivity test is not described
T4 sequence (looked up): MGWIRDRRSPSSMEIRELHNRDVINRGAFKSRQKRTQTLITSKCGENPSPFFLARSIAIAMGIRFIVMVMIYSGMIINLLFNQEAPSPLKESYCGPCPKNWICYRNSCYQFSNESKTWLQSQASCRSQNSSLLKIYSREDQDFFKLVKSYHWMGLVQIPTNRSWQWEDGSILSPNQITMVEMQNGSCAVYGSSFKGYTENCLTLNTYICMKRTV

[1] = target: T5, recombinant NKG2D-Fc protein (R&D Systems), immobilized on a Biacore CM5 chip (human, UniProt P26718 78-216); assay: SPR (Biacore), mean of the two NKG2D-Fc densities
T5 construct: also called NKG2D-hFc; hFc-NKG2D; not shown: Fc portion of the purchased fusion protein
T5 sequence: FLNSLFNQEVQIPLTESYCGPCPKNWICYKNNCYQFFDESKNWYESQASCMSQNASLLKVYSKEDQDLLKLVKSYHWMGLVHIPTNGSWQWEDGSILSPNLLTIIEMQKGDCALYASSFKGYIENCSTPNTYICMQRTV
Method: (§1) Protein immobilisation. […] Recombinant NKG2D-Fc proteins were immobilized covalently to carboxyl groups in the dextran layer on a Sensor Chip CM5 (Biacore GE Healthcare; BR-1000-14). The sensor chip surface was activated with EDC/NHS (N-ethyl-N′-(3-dimethylaminopropyl)carbodiimidehydrochloride and N-hydroxysuccinimide (Biacore GE Healthcare; BR-1000-50)). Proteins were diluted to 10 μg/ml in coupling buffer (10 mM acetate, pH 5.2) and injected until the appropriate immobilization level was reached (i.e. 500 to 1000 RU). Deactivation of the remaining activated groups was performed using 100 mM ethanolamine pH 8 (Biacore GE Healthcare; BR-1000-50).
(§2) Affinity measurement. […] For kinetic experiments, serial dilutions of soluble antibodies (from 0.3 to 30 nanoM) were injected for 2 min at a constant flow rate of 40 μl/min on dextran layers containing immobilized NKG2D-Fc proteins (500 to 1000 RU), and allowed to dissociate for 3 min before regeneration by a eight second injection of 500 mM NaCl and 10 mM NaOH buffer. The resulting sensorgrams were analysed by global fitting using the Langmuir model. The dissociation constant (KD) was calculated as KD=kd/ka.

[2] = target: T5, recombinant NKG2D-Fc protein (R&D …); assay: SPR (Biacore), NKG2D-Fc immobilized on CM5 chip at 600 RU, antibody in solution, Langmuir fit
Method: as §1, §2

[3] = target: T6, human NKG2D (hNKG2D) on the cell surface (human, UniProt P26718 1-216); assay: flow cytometry, dose-response on NKG2D- and DAP10-expressing BaF/3 cells, y axis % of max binding
T6 construct: Carried by BaF/3 cells co-transfected with full-length NKG2D and DAP10, or naturally by human NK, CD8+ T and gamma-delta T cells (PBMC, whole blood); also called cell-surface NKG2D; NKG2D- and DAP10-expressing BaF/3 cells
T6 chain: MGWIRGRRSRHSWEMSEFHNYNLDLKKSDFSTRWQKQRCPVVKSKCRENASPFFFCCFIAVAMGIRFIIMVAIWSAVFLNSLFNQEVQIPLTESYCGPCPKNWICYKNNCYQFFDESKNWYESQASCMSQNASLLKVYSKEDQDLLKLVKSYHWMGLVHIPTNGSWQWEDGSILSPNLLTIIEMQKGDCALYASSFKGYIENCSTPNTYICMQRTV

[4] = target: T7, rhesus monkey NKG2D on NK and CD8+ T cells (rhesus monkey (Macaca mulatta), UniProt Q9MZJ7 1-216); assay: flow cytometry on rhesus PBMC, NK cells gated; the legend names 16F16 purified from the original hybridoma
T7 construct: whole, on cells; Target on rhesus PBMC; also called rhesus NKG2D
T7 sequence (looked up): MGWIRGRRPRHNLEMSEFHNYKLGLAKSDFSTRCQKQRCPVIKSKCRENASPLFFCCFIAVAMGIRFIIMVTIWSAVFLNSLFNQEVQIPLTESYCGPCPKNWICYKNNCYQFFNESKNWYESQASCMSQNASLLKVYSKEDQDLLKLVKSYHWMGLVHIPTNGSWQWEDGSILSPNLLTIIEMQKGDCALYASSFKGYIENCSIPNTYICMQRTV
Method: (§3) Flow cytometry assay—man and monkey PBMC. Perifieral blood mononuclear cells (PMBCs) were isolated from humans, or from Cynomologous or Rhesus monkey. All animal work were performed according to Danish National Research Council guidelines.

[5] = target: T8, cynomolgous monkey NKG2D on NK, CD8+ T and gamma-delta T cells (cynomolgous monkey (Macaca fascicularis), UniProt P61252 1-216); assay: flow cytometry on cynomolgous PBMC, NK cells gated; the legend names 16F16 purified from the original hybridoma
T8 construct: whole, on cells; Target on cynomolgous PBMC and whole blood cells; also called cynomologous NKG2D; cyno NKG2D
T8 sequence (looked up): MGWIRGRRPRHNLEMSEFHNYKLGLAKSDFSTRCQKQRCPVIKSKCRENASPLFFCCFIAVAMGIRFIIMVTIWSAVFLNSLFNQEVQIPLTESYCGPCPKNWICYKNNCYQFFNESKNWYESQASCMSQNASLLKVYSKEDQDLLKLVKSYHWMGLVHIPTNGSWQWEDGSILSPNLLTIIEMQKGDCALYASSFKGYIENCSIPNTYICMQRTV
Method: as §3

binding result (mouse NKG2D): no binding | binding result (rat NKG2D): no binding | binding result (dog NKG2D): no binding | binding result (pig NKG2D): no binding | Kd [1]: 0.172 nM | Kd [2]: 0.165 nM | EC50 (read off the curve) [3]: ~0.03 nM | binding result [4]: binds | binding result [5]: binds
B1: 16F16, fully human anti-hNKG2D monoclonal antibody, recombinantly expressed as IgG4 isotype (antibody, V domains shown)
VH: EVQLVESGGGLVKPGGSLRLSCAASGFTFSSYSMNWVRQAPGKGLEWVSSITSSSSYIYYADSVKGRFTISRDNAKNSLYLQMNSLRAEDTAVYYCARDRRYFDWFPLDYRGQGTLVTVSS
VL: DIQMTQSPSSLSASVGDRVTITCRASQGISSWLAWYQQKPEKAPKSLIYAASSLQSGVPSRFSGSGSGTDFTLTISSLQPEDFATYYCQQYNGYPYTFGQGTKLEIKR
notes: also called 16F16 IgG4; 16F16 (IgG4)
